Data as given in patent US20230407367, “INTRINSICALLY DISORDERED PROTEINS FOR EXTRACTION OF NUCLEIC ACIDS” (published 2023).

Assays:
[1] = target: T1, E3 ELP [(VPGXG)10-GKG]8 (synthetic construct); assay: coacervate partitioning at 55 C, no added NaCl, 100 mM sodium phosphate pH 7.0; 100 mM NaCl leaves much more DNA in dilute phase; conditions: label: 5'-Cy3
T1 chain: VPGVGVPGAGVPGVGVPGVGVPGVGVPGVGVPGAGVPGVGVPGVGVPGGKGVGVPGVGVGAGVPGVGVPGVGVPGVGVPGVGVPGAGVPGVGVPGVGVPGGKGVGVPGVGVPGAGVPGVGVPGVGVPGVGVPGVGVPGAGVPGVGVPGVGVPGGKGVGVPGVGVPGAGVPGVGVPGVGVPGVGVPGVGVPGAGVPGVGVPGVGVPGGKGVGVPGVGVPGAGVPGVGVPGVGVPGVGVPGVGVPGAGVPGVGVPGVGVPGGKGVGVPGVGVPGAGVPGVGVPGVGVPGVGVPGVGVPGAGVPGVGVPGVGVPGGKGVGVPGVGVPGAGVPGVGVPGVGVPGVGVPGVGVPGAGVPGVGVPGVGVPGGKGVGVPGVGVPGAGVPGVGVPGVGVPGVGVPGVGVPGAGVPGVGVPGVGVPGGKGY
Excerpt: Across all t=0 samples at room temperature (T<Tt) no E3 condensates are observed (FIG. 3, A1 and D1) and all solution components are miscible and evenly distributed throughout the droplet volume (FIG. 3, A2, D2, A3 and D3). The incipient stages of thermally triggered E3 phase transition occur simultaneously throughout droplet volumes, corroborating demixing through spinodal decomposition for both +NaCl and −NaCl samples (FIG. 3, B1 and E1). […] Note that the recruitment of ssDNA-Cy3 into the E3 rich condensates is E3 concentration dependent. By contrast, addition of NaCl results in electrostatic shielding, partitioning more ssDNA-Cy3 in the solvent-rich phase (FIG. 3, B2 and C2). The combined E3 phase behavior and ssDNA-Cy3 partitioning for −NaCl and +NaCl is further evidenced by inspection of the merged brightfield and fluorescence microscopy images of FIG. 3, panels A3-F3.
To image the process of temperature-mediated E3 coacervation and interaction with DNA-Cy3, an Olympus IX83 fluorescence microscope (Olympus Life Science Technology Division, Center Valley, PA) was equipped with a Physitemp cooling and heating stage (TS4-MP/ER/PTU, Clifton, NJ) fitted with a temperature controller. Microfluidic droplets were generated using previously described methods and droplet generator. […]

[2] = target: T2, H-20 His-ELP (synthetic construct); assay: EMSA; pH 6, room temperature, 0.1-100 uM; weaker than H-24
T2 chain: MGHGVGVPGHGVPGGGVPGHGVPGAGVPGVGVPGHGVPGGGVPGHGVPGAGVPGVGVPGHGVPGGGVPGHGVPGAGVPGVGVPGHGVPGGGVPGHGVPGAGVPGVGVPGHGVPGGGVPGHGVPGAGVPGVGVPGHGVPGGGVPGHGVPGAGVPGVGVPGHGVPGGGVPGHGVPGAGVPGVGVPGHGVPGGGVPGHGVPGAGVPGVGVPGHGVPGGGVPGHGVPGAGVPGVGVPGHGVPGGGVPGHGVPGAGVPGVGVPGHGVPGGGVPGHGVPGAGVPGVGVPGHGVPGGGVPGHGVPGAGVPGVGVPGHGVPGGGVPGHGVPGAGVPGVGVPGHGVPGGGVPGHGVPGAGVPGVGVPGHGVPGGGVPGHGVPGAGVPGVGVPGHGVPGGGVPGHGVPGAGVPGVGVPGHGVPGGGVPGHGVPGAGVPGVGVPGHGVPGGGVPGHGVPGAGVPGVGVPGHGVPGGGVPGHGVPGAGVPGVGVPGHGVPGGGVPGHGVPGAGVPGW
Protocol: (§1) According to the prediction of His-ELP charge as a function of pH (FIG. 1l A), at pH 6, H-20 (SEQ. ID. NO. 8) is expected to have a charge of ≈+33 and H-24 (SEQ. ID. NO. 9) is expected to have a greater charge of ≈+39 as it has more histidines in its sequence. The primary association between His-ELPs and NAs is via electrostatic interactions; thus, the protein with greater charge is expected to have a more robust binding activity. Gel retardation assays were performed to analyze the binding activity of the His-ELPs (and another ELP with 8 cationic lysine charges, E3) with tRNA and ssDNA as a function of protein concentration at pH 6 (FIG. 12). Binding and gel electrophoresis were conducted at room temperature, below the Tt of each of the proteins, and for both tRNA and ssDNA, the degree of NA migration retardation was dependent on protein concentration (see FIG. 4).

[3] = target: T3, H-24 His-ELP (synthetic construct); assay: EMSA; pH 6, room temperature, 0.1-100 uM
T3 chain: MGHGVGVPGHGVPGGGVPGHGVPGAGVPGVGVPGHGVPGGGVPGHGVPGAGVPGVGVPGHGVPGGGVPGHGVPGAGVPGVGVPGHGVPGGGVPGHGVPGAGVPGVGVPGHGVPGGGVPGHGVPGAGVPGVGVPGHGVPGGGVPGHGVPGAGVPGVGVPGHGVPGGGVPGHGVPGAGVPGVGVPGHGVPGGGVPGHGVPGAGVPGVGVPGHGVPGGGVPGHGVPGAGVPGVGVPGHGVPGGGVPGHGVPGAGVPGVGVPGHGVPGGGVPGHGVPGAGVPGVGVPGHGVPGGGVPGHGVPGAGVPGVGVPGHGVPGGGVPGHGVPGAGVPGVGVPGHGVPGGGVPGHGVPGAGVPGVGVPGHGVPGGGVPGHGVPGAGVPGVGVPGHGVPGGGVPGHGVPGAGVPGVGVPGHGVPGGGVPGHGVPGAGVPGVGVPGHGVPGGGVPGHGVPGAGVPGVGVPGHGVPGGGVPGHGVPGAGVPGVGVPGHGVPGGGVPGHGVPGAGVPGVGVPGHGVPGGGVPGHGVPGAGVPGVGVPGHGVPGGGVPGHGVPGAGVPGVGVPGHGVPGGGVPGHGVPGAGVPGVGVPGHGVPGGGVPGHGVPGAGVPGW
Protocol: as §1

B1: Cy3-ssDNA (DNA-Cy3) (ssDNA)
DNA: TTTTTCCTAGAGAGTAGAGCCTGCTTCG
binding result [1]: binds

B2: ssDNA 28 nt (ssDNA)
DNA: TTTTTCCTAGAGAGTAGAGCCTGCTTCG
binding result [2]: binds
binding result [3]: binds
